Laboratory results as given in patent US10792857B2, “Polymeric microneedles and rapid additive manufacturing of the same” (The University of North Carolina at Chapel Hill, priority 2015, dated 2020).

Tests used:
[1] = Insulin release from CLIP fabricated PAA cylinders dissolved in water (sandwich ELISA); format: physicochemical
Text: Insulin (Sigma) was incorporated into test parts with identical dimensions described in FIG. 22A using CLIP and a resin containing 87.1 wt % acrylic acid monomer, 2.52 wt % DPO photo initiator, 10.4 wt % acetic acid, 0.17 wt % human insulin. Resin of an identical composition, excluding the […] insulin, was used as a negative control for insulin incorporation and release. Parts were fabricated using continuous printing on the CLIP7 apparatus (Carbon 3D) with a drawspeed of 100 mm/hr and 14.5 mW/cm2 light intensity. CLIP fabricated PAA parts were dissolved in 2 mL of water and the solution was then centrifuged at 20,000×g for 10 minutes to remove any insoluble material and insulin release was quantified using an sandwich ELIS A method (3A6 anti-insulin coating antibody, 8E2-HRP detection antibody from AbCam) combined with and an insulin standard curve. Insulin was readily detected in dissolved CLIP fabricated PAA cylinders made with insulin containing resin (FIG. 25) with an average of 0.5 unit/mL insulin (1 unit/cylinder), which was close to the theoretical insulin loading levels of 1 unit per cylinder based on PAA cylinder dry weight (20-22 mg). No insulin was detected in the supernatant of dissolved vehicle control cylinders (FIG. 25), validating the specificity of the ELISA-based insulin assay. […]

[2] = value used for insulin loading calculation; cited from earlier work
[3] = OVA-647 release from CLIP fabricated PAA cylinders dissolved in water (fluorescence plate reader); format: physicochemical; conditions: PAA cylinder from resin with 0.01 wt % OVA-647, dissolved in 2 mL of water, versus vehicle control cylinders
Text: Fluorescently labeled (Alexa Fluor® 647) model vaccine antigen ovalbumin (referred to as OVA-647) was incorporated into a PAA matrix using CLIP and a resin containing […] (Sigma), 2.3 wt % DPO photo initiator (Sigma), […], 0.01 wt % OVA-647 (Invitrogen). Resin of an identical composition, excluding the 0.01 wt % OVA-647, was used as a negative control for OVA-647 incorporation. The shape of the CLIP fabricated test parts was cylindrical with 3 mm diameter×3 mm height, containing a hollowed out center 1.5 mm diameter (FIG. 22A and FIG. 22B). Parts were fabricated using continuous printing on the CLIP7 apparatus (Carbon 3D) with a drawspeed of 100 mm/hr and 8.4 mW/cm2 light intensity. OVA-647 incorporation into CLIP fabricated PAA parts was confirmed using microscopy (FIG. 22C). The OVA-647 and vehicle control PAA cylinders were dissolved in 2 mL of water and the solution was then centrifuged at 20,000×g for 10 minutes to remove any insoluble material and OVA-647 release was measured using a fluorescence plate reader.
Referring to FIG. 23, vehicle PAA cylinders (containing 8.97 wt % water) or OVA-647 resin ([…] in water) were tested. Each bar represents an independent cylinder dissolved in 2 mL of water and the supernatant was measured for OVA-647 fluorescence. Values were normalized to a standard curve of soluble OVA-647. […]

| Molecule | insulin release per cylinder ([1]; PAA cylinder dissolved in 2 mL of water) | insulin release, average concentration in dissolved cylinder solution ([1]; PAA cylinder from resin with 0.17 wt % human insulin, dissolved in 2 mL of water) | max solubility [2] | OVA-647 release (fluorescence in supernatant) [3] |
| --- | --- | --- | --- | --- |
| Insulin: Human insulin (Sigma) incorporated into CLIP fabricated PAA cylinders | 1 unit/cylinder | 0.5 unit/mL | 10000 µg/mL | – |
| OVA-647: Fluorescently labeled (Alexa Fluor 647) model vaccine antigen ovalbumin, incorporated into PAA cylinders (protein, UniProt P01012 2-386, looked up, Alexa Fluor 647 label, Fluorescently labeled (Alexa Fluor 647) model vaccine antigen ovalbumin, incorporated into PAA cylinders) Ovalbumin: GSIGAASMEFCFDVFKELKVHHANENIFYCPIAIMSALAMVYLGAKDSTRTQINKVVRFDKLPGFGDSIEAQCGTSVNVHSSLRDILNQITKPNDVYSFSLASRLYAEERYPILPEYLQCVKELYRGGLEPINFQTAADQARELINSWVESQTNGIIRNVLQPSSVDSQTAMVLVNAIVFKGLWEKAFKDEDTQAMPFRVTEQESKPVQMMYQIGLFRVASMASEKMKILELPFASGTMSMLVLLPDEVSGLEQLESIINFEKLTEWTSSNVMEERKIKVYLPRMKMEEKYNLTSVLMAMGITDVFSSSANLSGISSAESLKISQAVHAAHAEINEAGREVVGSAEAGVDAASVSEEFRADHPFLFCIKHIATNAVLFFGRCVSP | – | – | – | readily detected above background florescence levels |
